Reference: the RNAGym collection of RNA variant scans (doi:10.1093/molbev/msab373)

B1: Azoarcus group I ribozyme (parent)
chain: GUGCCUUGCGCCGGGAAACCACGCAAGGGAUGGUGUCAAAUUCGGCGAAACCUAAGCGCCCGCCCGGGCGUAUGGCAACGCCGAGCCAAGCUUCGGCGCCUGCGCCGAUGAAGGUGUAGAGACUAGACGGCACCCACCUAAGGCAAACGCUAUGGUGAAGGCAUAGUCCAGGGAGUGGCGAAAGUCACACAAACCGG

Variants of: B1
Experiment: reverse-splicing fitness (ratio to wild type); higher = more active; in vitro selection; Mg2+ level not given
Outline: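 An in vitro group I ribozyme library with randomized positions was T7-transcribed and gel-purified. In triplicate, 10 pmol RNA in EPPS pH 7.5 was reacted with 50 pmoles of a 30-nt RNA substrate for 1 h at 37 °C across several added MgCl2 levels (1–48 mM), then stopped with EDTA. Products were reverse transcribed from a substrate-complementary primer, PCR-amplified and sequenced (HiSeq 4000). Fitness is a variant's read proportion after selection over that before, normalised to wild type.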

Variant | reverse-splicing fitness
A111G A120U A145G C150U U176C | 0.285
A111G A120U A145G C150U U176G | 0.0427
A111G A120U A145G C169A | 0.00517
A111G A120U A145G C169A U176A | 0.00347
A111G A120U A145G C169A U176C | 0.00372
A111G A120U A145G C169A U176G | 0.0013
A111G A120U A145G C169G | 0.087
A111G A120U A145G C169G U176A | 0.00934
A111G A120U A145G C169G U176C | 0.0201
A111G A120U A145G C169G U176G | 0.00189
A111G A120U A145G C169U | 0.126
A111G A120U A145G C169U U176A | 0.0227
A111G A120U A145G C169U U176C | 0.0414
A111G A120U A145G C169U U176G | 0.0035
A111G A120U A145G U176A | 0.344
A111G A120U A145G U176C | 0.386
A111G A120U A145G U176G | 0.124
A111G A120U A145U | 0.759
A111G A120U A145U C150A | 0.0903
A111G A120U A145U C150A C169A | 0.00222
A111G A120U A145U C150A C169A U176A | 0.00244
A111G A120U A145U C150A C169A U176C | 0.00238
A111G A120U A145U C150A C169A U176G | 0.00207
A111G A120U A145U C150A C169G | 0.00763

Variant | reverse-splicing fitness
A111G A120U A145U C150A C169G U176A | 0.00286
A111G A120U A145U C150A C169G U176C | 0.00285
A111G A120U A145U C150A C169G U176G | 0.00159
A111G A120U A145U C150A C169U | 0.0112
A111G A120U A145U C150A C169U U176A | 0.00329
A111G A120U A145U C150A C169U U176C | 0.00339
A111G A120U A145U C150A C169U U176G | 0.00172
A111G A120U A145U C150A U176A | 0.0447
A111G A120U A145U C150A U176C | 0.0372
A111G A120U A145U C150A U176G | 0.018
A111G A120U A145U C150G | 0.105
A111G A120U A145U C150G C169A | 0.00344
A111G A120U A145U C150G C169A U176A | 0.00281
A111G A120U A145U C150G C169A U176C | 0.00355
A111G A120U A145U C150G C169A U176G | 0.0022
A111G A120U A145U C150G C169G | 0.0082
A111G A120U A145U C150G C169G U176A | 0.00284
A111G A120U A145U C150G C169G U176C | 0.00268
A111G A120U A145U C150G C169G U176G | 0.00203
A111G A120U A145U C150G C169U | 0.012
A111G A120U A145U C150G C169U U176A | 0.00269
A111G A120U A145U C150G C169U U176C | 0.00372
A111G A120U A145U C150G C169U U176G | 0.00216
A111G A120U A145U C150G U176A | 0.0157

Variant | reverse-splicing fitness
A111G A120U A145U C150G U176C | 0.0298
A111G A120U A145U C150G U176G | 0.00462
A111G A120U A145U C150U | 0.584
A111G A120U A145U C150U C169A | 0.00473
A111G A120U A145U C150U C169A U176A | 0.00375
A111G A120U A145U C150U C169A U176C | 0.0026
A111G A120U A145U C150U C169A U176G | 0.00175
A111G A120U A145U C150U C169G | 0.0547
A111G A120U A145U C150U C169G U176A | 0.00842
A111G A120U A145U C150U C169G U176C | 0.009
A111G A120U A145U C150U C169G U176G | 0.00232
A111G A120U A145U C150U C169U | 0.0793
A111G A120U A145U C150U C169U U176A | 0.0131
A111G A120U A145U C150U C169U U176C | 0.0168
A111G A120U A145U C150U C169U U176G | 0.00321
A111G A120U A145U C150U U176A | 0.265
A111G A120U A145U C150U U176C | 0.279
A111G A120U A145U C150U U176G | 0.0789
A111G A120U A145U C169A | 0.00636
A111G A120U A145U C169A U176A | 0.00236
A111G A120U A145U C169A U176C | 0.00348
A111G A120U A145U C169A U176G | 0.00131
A111G A120U A145U C169G | 0.0912
A111G A120U A145U C169G U176A | 0.00865

Variant | reverse-splicing fitness
A111G A120U A145U C169G U176C | 0.0178
A111G A120U A145U C169G U176G | 0.00196
A111G A120U A145U C169U | 0.122
A111G A120U A145U C169U U176A | 0.0203
A111G A120U A145U C169U U176C | 0.032
A111G A120U A145U C169U U176G | 0.00399
A111G A120U A145U U176A | 0.364
A111G A120U A145U U176C | 0.431
A111G A120U A145U U176G | 0.15
A111G A120U C150A | 0.112
A111G A120U C150A C169A | 0.00359
A111G A120U C150A C169A U176A | 0.00442
A111G A120U C150A C169A U176C | 0.00292
A111G A120U C150A C169A U176G | 0.00195
A111G A120U C150A C169G | 0.0107
A111G A120U C150A C169G U176A | 0.00675
A111G A120U C150A C169G U176C | 0.00454
A111G A120U C150A C169G U176G | 0.00211
A111G A120U C150A C169U | 0.0125
A111G A120U C150A C169U U176A | 0.0063
A111G A120U C150A C169U U176C | 0.00598
A111G A120U C150A C169U U176G | 0.00282
A111G A120U C150A U176A | 0.0485
A111G A120U C150A U176C | 0.0464

Variant | reverse-splicing fitness
A111G A120U C150A U176G | 0.0203
A111G A120U C150G | 0.0688
A111G A120U C150G C169A | 0.00729
A111G A120U C150G C169A U176A | 0.00453
A111G A120U C150G C169A U176C | 0.00366
A111G A120U C150G C169A U176G | 0.00246
A111G A120U C150G C169G | 0.0111
A111G A120U C150G C169G U176A | 0.00427
A111G A120U C150G C169G U176C | 0.00213
A111G A120U C150G C169G U176G | 0.00237
A111G A120U C150G C169U | 0.0103
A111G A120U C150G C169U U176A | 0.00346
A111G A120U C150G C169U U176C | 0.00437
A111G A120U C150G C169U U176G | 0.00256
A111G A120U C150G U176A | 0.0102
A111G A120U C150G U176C | 0.0248
A111G A120U C150G U176G | 0.00318
A111G A120U C150U | 0.538
A111G A120U C150U C169A | 0.00587
A111G A120U C150U C169A U176A | 0.00336
A111G A120U C150U C169A U176C | 0.00257
A111G A120U C150U C169A U176G | 0.00227
A111G A120U C150U C169G | 0.0472
A111G A120U C150U C169G U176A | 0.0102

Variant | reverse-splicing fitness
A111G A120U C150U C169G U176C | 0.0106
A111G A120U C150U C169G U176G | 0.00215
A111G A120U C150U C169U | 0.0666
A111G A120U C150U C169U U176A | 0.016
A111G A120U C150U C169U U176C | 0.02
A111G A120U C150U C169U U176G | 0.0032
A111G A120U C150U U176A | 0.23
A111G A120U C150U U176C | 0.249
A111G A120U C150U U176G | 0.0744
A111G A120U C169A | 0.00619
A111G A120U C169A U176A | 0.0033
A111G A120U C169A U176C | 0.00321
A111G A120U C169A U176G | 0.00161
A111G A120U C169G | 0.103
A111G A120U C169G U176A | 0.0109
A111G A120U C169G U176C | 0.0228
A111G A120U C169G U176G | 0.00198
A111G A120U C169U | 0.144
A111G A120U C169U U176A | 0.0277
A111G A120U C169U U176C | 0.0395
A111G A120U C169U U176G | 0.00411
A111G A120U U176A | 0.432
A111G A120U U176C | 0.445
A111G A120U U176G | 0.164

Variant | reverse-splicing fitness
A111G A145C | 0.876
A111G A145C C150A | 0.229
A111G A145C C150A C169A | 0.00859
A111G A145C C150A C169A U176A | 0.0101
A111G A145C C150A C169A U176C | 0.00515
A111G A145C C150A C169A U176G | 0.00629
A111G A145C C150A C169G | 0.0111
A111G A145C C150A C169G U176A | 0.02
A111G A145C C150A C169G U176C | 0.0114
A111G A145C C150A C169G U176G | 0.00534
A111G A145C C150A C169U | 0.0168
A111G A145C C150A C169U U176A | 0.0152
A111G A145C C150A C169U U176C | 0.0113
A111G A145C C150A C169U U176G | 0.00473
A111G A145C C150A U176A | 0.129
A111G A145C C150A U176C | 0.128
A111G A145C C150A U176G | 0.0755
A111G A145C C150G | 0.45
A111G A145C C150G C169A | 0.0117
A111G A145C C150G C169A U176A | 0.0077
A111G A145C C150G C169A U176C | 0.00646
A111G A145C C150G C169A U176G | 0.00652
A111G A145C C150G C169G | 0.018
